Results reported in patent US20090246189A1 (Biogen, published 2009).

Biological target: T1, endogenous EGFR in mouse ventral midbrain (VM) tissue (mouse, UniProt Q01279 25-1210)
T1 construct: Native protein in a tissue extract
Experiment: co-immunoprecipitation from mouse ventral midbrain extracts, Western blot
Protocol: COS-7 or HEK 293 cells (100 mm dishes) were transfected with Sp35, EGFR and Sp35/EGFR. The cells were harvested after 48 hours and lysed in 1 ml lysis buffer (50 mM HEPES, pH 7.5, 150 mM NaCl, 1.5 mM MgCl₂, 1 mM EDTA, 1% Triton x-100, 10% glycerol) or RIPA buffer (50 mM TRIS, pH 7.2, 1% Triton X-100, 0.5% sodium deoxycholate, 0.1% SDS, 150 mM NaCl, 10 mM MgCl₂, 5% glycerol) for 30 minutes at 4° C. After centrifugation at 14,000×g for 15 minutes, the supernatants were incubated with Protein A/G-Sepharose beads (Santa Cruz Biotechnology) at 4° C. for 1 hour, and then 200 μl of the precleared lystates were incubated with either anti-EGFR (Santa Cruz Biotechnology) at 4° C. for 1 hour, anti-Sp35 antibody (Biogen Idec, described in U.S. Provisional Patent Application No. 60/697,336, which is incorporated by reference herein in its entirety) followed by treatment with Protein A/G-Sepharose beads. The beads were washed 3 times with lysis buffer, boiled in Laemmeli sample buffer, subjected to 4-20% SDS-PAGE, and analyzed by Western blotting with anti-EGFR antibody or anti-Sp35 antibody. The EGFR and Sp35 antibodies were visualized using anti-rabbit IgG-HRP.
Sp35 KO or WT VMs were lysed in RIPA buffer and pre-cleared by Protein A/G plus-Sepharose beads as described above. […]

binding result: binds
B1: endogenous Sp35 (LINGO-1) in mouse ventral midbrain (VM) tissue (receptor, UniProt Q9D1T0 36-614, looked up)
chain: CPPRCECSAQDRAVLCHRKRFVAVPEGIPTETRLLDLGKNRIKTLNQDEFASFPHLEELELNENIVSAVEPGAFNNLFNLRTLGLRSNRLKLIPLGVFTGLSNLTKLDISENKIVILLDYMFQDLYNLKSLEVGDNDLVYISHRAFSGLNSLEQLTLEKCNLTSIPTEALSHLHGLIVLRLRHLNINAIRDYSFKRLYRLKVLEISHWPYLDTMTPNCLYGLNLTSLSITHCNLTAVPYLAVRHLVYLRFLNLSYNPIGTIEGSMLHELLRLQEIQLVGGQLAVVEPYAFRGLNYLRVLNVSGNQLTTLEESAFHSVGNLETLILDSNPLACDCRLLWVFRRRWRLNFNRQQPTCATPEFVQGKEFKDFPDVLLPNYFTCRRAHIRDRKAQQVFVDEGHTVQFVCRADGDPPPAILWLSPRKHLVSAKSNGRLTVFPDGTLEVRYAQVQDNGTYLCIAANAGGNDSMPAHLHVRSYSPDWPHQPNKTFAFISNQPGEGEANSTRATVPFPFDIKTLIIATTMGFISFLGVVLFCLVLLFLWSRGKGNTKHNIEIEYVPRKSDAGISSADAPRKFNMKMI
notes: Native protein in a tissue extract; Sp35 knock-out VM served as the control
